Measured values from article PMC8440923, “Peptides Targeting the Interaction Between Erb1 and Ytm1 Ribosome Assembly Factors” (Frontiers in Molecular Biosciences, 2021).

B1: Erb1 (Chaetomium thermophilum ribosome assembly factor) (natural protein, UniProt G0SCK6 1-801, looked up)
chain: MGSKIVEKKRKSRDSDSESDNELGDGLFDGVLSQSEDEEDYIPSSEVDEDDDDDADESASEDSDDSNDSEDDEVEEDDEALLSDEIPSEGESEKDQDLAESKESKQDQDKEPSEPEILEPFVDPPRKEDEELEDRNYRIEKDANGGIRYVYDEIDPVYDSDDTDYNVPVNTIGNIPLSFYDSYPHIGYDINGKKIMRPATGDALQNLLDSIEVPEGWTGLTDPNTGKPLNLSRDELELIRKVQQGLIPDDVEDPYPDTVEWFTSVEEKMPLSAAPEPKRRFIPSKNEAKQIMKLVRAIREGRILPYKPPEEREREELEKEEEFYDLWQNEEPQPPNPMHIPAPKLPPPGYDLSYNPPPEYLPTKEEREEWEKMDPEDREKDYLPTKYDSLRKVPAWGNFVKERFERCMDLYLAPRVRKNRLNIDPNSLLPKLPSPDELKPFPTVQQTIFRGHEGRVRSVAIDPTGVALATGGDDGTVRVWELLTGRQVWSVKLNGDEAVNTVRWRPTKDTFILAAAAGEDIFLMIPTHPSVTPALDQASRDILNAGFGHATNGKQQANLPPGKEPPGKWARPGTRLEDEGVLLRITVRSTIKAISWHRRGDHFATVSPSGQRSSVAIHTLSKHLTQIPFRKLNGLAQTASFHPLRPLFFVATQRSIRCYDLQKLELVKIVQPGAKWISSFDVHPGGDNLVVGSYDKRLLWHDLDLSNRPYKTMRFHTEAIRAVRFHKGGLPLFADASDDGSLQIFHGKVPNDQLENPTIVPVKMLKGHKVVNKLGVLDIDWHPREPWCVSAGADGTARLWM
notes: Erb1, Chaetomium thermophilum; cloned in pET28-NKI/LIC 6His/3C; Erb1 was held on Ni-NTA biosensors; source: E. coli (DE3) BL21 CodonPlus (RIPL), auto-induction, purified (Histrap-HP Ni, HiTrap Heparin, Superdex 200 SEC)
B2: Ytm1 (Chaetomium thermophilum ribosome assembly factor) (natural protein)
chain: MDAPMEDAPAPVAQVKVIFTTTEPDLELPESKRQLLVPADIRRYGLSRILNSESMLDTGSIPFDFLINGSFLRSSLEDYLTSNGLSLETTLTLQYVRSLIPPVYEASFEHDDWVSAVDVLSATSPAGRWSSAANSSAAVQPGQERVLSASYDGLLRIWNASGSVIATSPSGSHGGHTASIKAAKFLTSDRLASAGMDRTVRVWKYTESDHFTGELKPTLELYGHTGSVDWLDVDGHSKHILTASADGAIGFWSASKASAPEPDASLLPGAHVSKRRKATSSVSTAQRGPLGLWSIHTAPATAAIFDPRDRTVAYSASQDHTVRTLDLTTGQVVSTLTLTHPLLSLSALTRAGTTSPLLAAGTSARHITMVDPRASSATTSVMTLRGHANKVVSLSPSPENEYSLVSGSHDGTCRVWDLRSVRPATKEEGSLGGVSEPVYVIERESWASKGKKKRPVAGDGCKVFSVVWDKLGIFSGGEDKKVQVNRGRNIVTEQK
notes: Ytm1, Chaetomium thermophilum; YTM1 gene amplified from total cDNA and cloned in pOPIN-F; For MST, Ytm1 was labelled with the Red-NHS second-generation dye; source: Sf9 insect cells (baculovirus), purified (Histrap-HP Ni, Superdex 200 SEC)

Columns and labels:
Erb1/Ytm1 complex = target: T1, Erb1/Ytm1 complex (Thermochaetoides thermophila, UniProt G0SFB5); test: Biolayer interferometry peptide interference assay, immobilized Erb1, Ytm1 analyte preincubated with P1-P3; type: binding, Chaetomium thermophilum; conditions: BLI, 5 µM Ytm1 preincubated with equimolar peptide, reference without peptide 1.724e-3
T1 construct: 6xHis; made in house; host or cells: Ytm1: Sf9 insect cells (baculovirus); Erb1: Escherichia coli (DE3) BL21 CodonPlus (RIPL)
T1 sequence (G0SFB5 1-495): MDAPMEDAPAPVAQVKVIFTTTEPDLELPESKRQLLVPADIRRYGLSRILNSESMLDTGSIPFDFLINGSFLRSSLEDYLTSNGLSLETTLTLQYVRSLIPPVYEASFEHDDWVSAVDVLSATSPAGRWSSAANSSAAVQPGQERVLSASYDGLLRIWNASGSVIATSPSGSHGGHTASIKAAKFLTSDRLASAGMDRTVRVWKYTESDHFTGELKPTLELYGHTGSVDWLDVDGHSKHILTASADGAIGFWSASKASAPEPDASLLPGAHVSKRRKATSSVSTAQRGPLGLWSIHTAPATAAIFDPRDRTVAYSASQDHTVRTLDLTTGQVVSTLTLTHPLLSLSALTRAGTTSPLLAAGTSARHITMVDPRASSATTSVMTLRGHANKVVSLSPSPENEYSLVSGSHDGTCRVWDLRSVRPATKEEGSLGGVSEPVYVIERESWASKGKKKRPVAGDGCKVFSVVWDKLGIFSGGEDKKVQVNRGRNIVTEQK
Procedure: Peptides were commercially obtained from Synpeptide Co., Ltd., Shanghai, China. All experiments have been made in triplicates and include control curves for bait and analyte only.
Potential interference peptide samples were evaluated by their ability to interfere the kinetics and affinity of the complex between Erb1 and Ytm1 as measured by Biolayer Interferometry (BLItz, Pall FortéBio Corp.) using Ni-NTA biosensors (FortéBio) and 50 mM HEPES, pH 7.5; 150 mM NaCl; 5% (v/v) glycerol; and 2 mM β-mercaptoethanol (BME) buffer. To set the reference KD, an 80 µg/ml solution of Erb1 was immobilized to the biosensor in order to obtain binding curves for increasing concentrations of Ytm1. According to this, an evaluation of Erb1-derived peptides (P1–P3) was performed using 5 µM Ytm1 previously incubated during 30 min at equimolar concentrations of each peptide. New KD values were determined. […]
Biolayer interferometry interference assays were used to evaluate the ability of each peptide to interfere in the in vitro formation of the Erb1/Ytm1 complex. […] Peptides were evaluated for their ability to decrease in the Erb1/Ytm1 complex formation by preincubating the analyte with each peptide derived from the immobilized partner. […] Erb1-derived peptides were evaluated by their ability to decrease Erb1/Ytm1 complex affinity. […]

Ytm1 [1] = target: T2, Ytm1 (Thermochaetoides thermophila, UniProt G0SFB5); test: Differential scanning fluorimetry (thermofluor) of Ytm1 with peptide; type: binding, Chaetomium thermophilum; conditions: DSF, SYPRO Orange 1:1,000; 5 µM Ytm1, 1 mM peptide; 50 mM HEPES pH 7.5, 150 mM NaCl; 20-85°C at 1°C/min; triplicates
T2 construct: 6xHis; made in house; host or cells: Sf9 insect cells (baculovirus)
T2 sequence (G0SFB5 1-495): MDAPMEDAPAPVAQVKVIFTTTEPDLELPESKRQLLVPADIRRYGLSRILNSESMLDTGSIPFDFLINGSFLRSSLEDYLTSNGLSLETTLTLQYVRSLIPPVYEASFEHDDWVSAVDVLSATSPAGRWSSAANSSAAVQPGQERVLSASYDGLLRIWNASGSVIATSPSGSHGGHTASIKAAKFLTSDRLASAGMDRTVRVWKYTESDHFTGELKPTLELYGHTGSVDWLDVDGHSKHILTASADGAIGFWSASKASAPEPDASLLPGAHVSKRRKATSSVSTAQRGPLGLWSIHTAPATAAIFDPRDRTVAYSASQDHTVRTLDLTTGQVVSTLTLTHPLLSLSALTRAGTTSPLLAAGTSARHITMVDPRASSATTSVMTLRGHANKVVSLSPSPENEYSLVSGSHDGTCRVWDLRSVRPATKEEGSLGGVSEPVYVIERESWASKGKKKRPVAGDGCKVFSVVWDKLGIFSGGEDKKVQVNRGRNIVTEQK
Procedure: Thermofluor assays ([Pantoliano et al., 2001]) were performed on a 7,500 Fast Real-Time PCR System (Applied Biosystems) measuring the gradual fluorescence generated by a 1:1,000 dilution of SYPRO Orange Protein Stain Gel (Supelco, Merck-Sigma) along with 1°C/min temperature increase from 20°C until 85°C.
The samples were mixed containing the protein Ytm1 at 5 µM in 50 mM HEPES pH 7.5, 150 mM NaCl and peptides P1-P3 at 1 mM concentration. Previously, lyophilized P2 and P3 were resuspended in the same Ytm1 buffer and P1 was solubilized in 10 mM Tris (hydroxymethyl)-methylamine (Tris-HCl), pH 8.8 for P1. Data of triplicated experiments were analyzed using GraphPad Prism 5.01 software.

Ytm1 [2] = target: T2, Ytm1; test: Microscale thermophoresis of labelled Ytm1 with peptide; type: binding, Chaetomium thermophilum; conditions: peptide at a maximum concentration of 1,580 µM, data quality did not allow fitting of KD
Procedure: Microscale thermophoresis (MST) was used to determine the binding affinity between Ytm1 and P1. Ytm1 was labeled with a Red-NHS second-generation dye kit (100 µl at 10 µM of protein +300 µM dye solution) for 30 min at room temperature in the dark. 5 nM of labeled Ytm1 in 50 mM HEPES pH 7.5, NaCl 150 mM supplemented with 0.1% (v/v) Pluronic F-127 was used for the assay. P1 stock is diluted in 10 mM Tris (hydroxymethyl)-methylamine (Tris-HCl), pH 8.8. Ytm1 and P1 were mixed at 1:1 molar ratio in sixteen serial dilutions (1,230 μM–0.0751 µM) using the same buffer. Measurements were taken on a Monolith NT.115 instrument (NanoTemper Technologies). Similarly biding between Ytm1 and P3 using MST was tested using the same Ytm1 buffer also for P3. Curve fitting and KD calculations every 10 min were analyzed from three independent experiments with MO. […] Curves were analyzed using Affinity Analysis Software (NanoTemper Technologies).

[3] = target: B2; test: BLI; interference assay; Ytm1 (80 µg/ml) immobilised on Ni-NTA biosensor; 20 µM Erb1 preincubated with equimolar Ytm1-derived peptide (P4-P6) as analyte; 50 mM HEPES pH 7.5, 150 mM NaCl, 5% glycerol, 2 mM BME; conditions: both partners purified
[4] = target: B1; test: BLI; BLItz; Ytm1 (80 µg/ml) immobilised on Ni-NTA biosensor, Erb1 as analyte; 50 mM HEPES pH 7.5, 150 mM NaCl, 5% glycerol, 2 mM BME; reference without peptide; conditions: both partners purified
[5] = target: B1; test: BLI; BLItz; Erb1 (80 µg/ml) immobilised on Ni-NTA biosensor, increasing concentrations of Ytm1 as analyte; 50 mM HEPES pH 7.5, 150 mM NaCl, 5% glycerol, 2 mM BME; reference without peptide; conditions: both partners purified
[6] = target: B1; test: BLI; interference assay; Erb1 (80 µg/ml) immobilised on Ni-NTA biosensor; 5 µM Ytm1 preincubated 30 min with equimolar Erb1-derived peptide (P1-P3) as analyte; 50 mM HEPES pH 7.5, 150 mM NaCl, 5% glycerol, 2 mM BME; conditions: both partners purified

DWHPREPWCV [Peptide P3, Erb1-derived peptide …, residues 780–789]
kd (1/s) of Erb1/Ytm1 binding after preincubation of Ytm1 with peptide (Erb1/Ytm1 complex): 0.01238 s⁻¹ | Thermal shift (Tm) of Ytm1 in the presence of peptide (Ytm1 [1]): did not show any significant thermal shift | Binding to Ytm1 by MST (in words) (Ytm1 [2]): tendency toward binding

B1
KD after preincubation of Erb1 with equimolar P6 [3]: 2400 nM

B2
Kd [4]: 229 nM | Kd [5]: 32.3 nM | KD after preincubation of Ytm1 with equimolar P1 [6]: 190 nM | KD after preincubation of Ytm1 with equimolar P3 [6]: 170 nM
